Assay results taken from patent US9533059 (GE HEALTHCARE, dated 2017).
Positions of bridges follow the written chain, without caps; N, C: chain ends.

Target: human c-Met receptor (human, UniProt P08581 25-1390)
Assay: cell-based or functional assay

human c-Met receptor, sequence (P08581 25-1390): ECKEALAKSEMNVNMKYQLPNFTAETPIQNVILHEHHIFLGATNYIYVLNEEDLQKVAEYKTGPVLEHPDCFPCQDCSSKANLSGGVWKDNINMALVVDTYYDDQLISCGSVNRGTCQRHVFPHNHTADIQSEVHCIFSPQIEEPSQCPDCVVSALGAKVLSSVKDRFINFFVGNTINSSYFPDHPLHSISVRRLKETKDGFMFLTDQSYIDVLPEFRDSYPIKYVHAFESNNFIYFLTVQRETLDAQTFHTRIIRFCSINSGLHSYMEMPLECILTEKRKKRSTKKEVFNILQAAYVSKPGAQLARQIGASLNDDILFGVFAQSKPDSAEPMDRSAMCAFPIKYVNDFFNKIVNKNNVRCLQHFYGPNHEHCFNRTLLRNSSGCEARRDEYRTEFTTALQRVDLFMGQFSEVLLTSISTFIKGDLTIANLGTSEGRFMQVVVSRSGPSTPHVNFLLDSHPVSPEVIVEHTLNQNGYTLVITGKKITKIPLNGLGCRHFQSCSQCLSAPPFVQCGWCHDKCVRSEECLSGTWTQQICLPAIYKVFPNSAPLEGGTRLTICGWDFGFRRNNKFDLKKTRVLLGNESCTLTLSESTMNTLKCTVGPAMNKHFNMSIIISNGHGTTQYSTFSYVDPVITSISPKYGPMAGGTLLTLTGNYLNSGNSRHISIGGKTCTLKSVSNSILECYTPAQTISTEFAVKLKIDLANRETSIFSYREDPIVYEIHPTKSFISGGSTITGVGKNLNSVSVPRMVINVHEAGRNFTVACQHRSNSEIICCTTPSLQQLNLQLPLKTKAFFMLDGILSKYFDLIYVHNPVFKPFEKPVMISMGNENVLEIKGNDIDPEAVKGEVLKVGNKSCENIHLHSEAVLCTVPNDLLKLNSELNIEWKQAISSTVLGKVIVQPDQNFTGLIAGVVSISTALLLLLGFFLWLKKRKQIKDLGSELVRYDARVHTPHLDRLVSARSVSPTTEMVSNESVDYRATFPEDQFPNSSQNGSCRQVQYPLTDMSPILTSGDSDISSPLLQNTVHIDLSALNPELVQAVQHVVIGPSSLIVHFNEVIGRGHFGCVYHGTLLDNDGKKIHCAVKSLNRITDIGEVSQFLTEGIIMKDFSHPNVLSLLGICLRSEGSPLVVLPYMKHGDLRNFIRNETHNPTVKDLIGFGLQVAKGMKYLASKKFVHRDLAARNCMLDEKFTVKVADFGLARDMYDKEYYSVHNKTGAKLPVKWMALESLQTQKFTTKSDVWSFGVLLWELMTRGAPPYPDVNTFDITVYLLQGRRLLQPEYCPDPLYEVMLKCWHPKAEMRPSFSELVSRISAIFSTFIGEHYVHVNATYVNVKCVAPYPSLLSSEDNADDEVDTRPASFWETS

Ac-AGSCYCSGPPRFECWCYETEGTGGGK(N‑(4-fluorobenzylidene)aminooxyacetyl)-NH2 (disulfide 6-14, 4-16) [Compound 3A]
HT-29 tumour uptake of Compound 3B with 1000-fold excess unlabelled peptide: 1.1 % id/g | reduction in HT-29 tumour uptake of Compound 3B with 1000-fold excess unlabelled peptide: 40%
